# PMC11406360, “The enzymatic oxygen sensor cysteamine dioxygenase binds its protein substrates through their N-termini” (The Journal of Biological Chemistry, 2024)
# *1 amine or outer side, *2 acyl side, *3 side chain or, on linkers, in order; H or OH if unused. Where a SMILES comes first, the peptide text is derived from it. Where no end group is shown, it is not given here. [ ]: non-standard residue; d: D form. Cys(O2H) = cysteine sulfinic acid (N-terminal cysteine sulfinylated), O=C([C@H](CS(=O)O[*:3])N[*:1])[*:2]
# T1: ADO (2-aminoethanethiol dioxygenase), iron-bound wild type (Homo sapiens, UniProt Q96SZ5)
# T1 construct: Full-length human ADO (UniProt ID: Q96SZ5) was cloned; made in house; host or cells: Rosetta2(DE3) Escherichia coli
# T1 sequence (Q96SZ5 1-270): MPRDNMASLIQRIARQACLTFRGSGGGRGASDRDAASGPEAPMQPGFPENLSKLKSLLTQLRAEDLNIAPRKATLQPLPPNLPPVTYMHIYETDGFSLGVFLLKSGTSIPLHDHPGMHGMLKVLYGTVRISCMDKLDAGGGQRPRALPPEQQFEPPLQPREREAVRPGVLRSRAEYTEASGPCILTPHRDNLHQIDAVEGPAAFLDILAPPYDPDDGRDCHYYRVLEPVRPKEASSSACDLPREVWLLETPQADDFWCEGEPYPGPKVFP
# T2: 2-aminoethanethiol (cysteamine) dioxygenase (ADO), biotinylated, for SPR (human, UniProt Q96SZ5 1-270, biotin (N terminally biotinylated; 0.2 mM biotin added at induction))
# T2 chain: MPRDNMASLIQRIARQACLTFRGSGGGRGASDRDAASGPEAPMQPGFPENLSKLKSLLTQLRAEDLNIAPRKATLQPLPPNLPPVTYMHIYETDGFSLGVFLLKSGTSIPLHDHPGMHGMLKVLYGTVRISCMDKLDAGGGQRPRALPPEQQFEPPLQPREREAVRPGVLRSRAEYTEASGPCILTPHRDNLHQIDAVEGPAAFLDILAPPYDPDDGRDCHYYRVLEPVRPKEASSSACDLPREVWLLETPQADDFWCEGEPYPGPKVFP
# T3: 2-aminoethanethiol (cysteamine) dioxygenase (ADO), biotinylated, for SPR (human, UniProt Q96SZ5 1-270, biotin (N terminally biotinylated; 0.2 mM biotin added at induction))
# T3 construct: 2-aminoethanethiol (cysteamine) dioxygenase (ADO), human, UniProt Q96SZ5, full length; In the chelation experiments the metal was removed and iron put back on the chip (see assays a2, a3); Used also as the ADO of the functional rows, although the enzyme assays used the pET28a-ADO construct (N-terminal His tag); also called WT ADO; native ADO; source: E. coli Rosetta2(DE3), pQE80L-Navi construct, …
# T3 sequence (looked up): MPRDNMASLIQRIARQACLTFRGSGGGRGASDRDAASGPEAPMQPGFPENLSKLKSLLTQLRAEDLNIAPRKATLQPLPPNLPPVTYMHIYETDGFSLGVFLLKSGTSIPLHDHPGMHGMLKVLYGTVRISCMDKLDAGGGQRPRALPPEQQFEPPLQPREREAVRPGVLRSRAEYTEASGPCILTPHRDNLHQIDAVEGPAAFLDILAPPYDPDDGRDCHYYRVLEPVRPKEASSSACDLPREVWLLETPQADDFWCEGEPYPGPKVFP
# Molecular target: T1, ADO (2-aminoethanethiol dioxygenase), iron-bound wild type
# Assay: SPR binding of peptide/protein substrates to immobilised ADO
# Settings: SPR steady state, 1:1 binding model, biotinylated ADO on Biotin CAP chip, 4 °C, 20 mM Hepes pH 7.5, 500 mM NaCl, 10 mM DTT, 0.1% tween-20; geometric mean (± SD) of minimum three independent measurements
# Description: ADO catalyzes the O2-dependent sulfinylation of Nt-cys residues, which reportedly bind to the iron cofactor in a monodentate arrangement through ligation of the thiol group ([14], [15]). To test the importance of Nt-cys modifications and substitutions on ADO association, a SPR assay was established. […] Data collected under steady state conditions is presented in the main text and kinetic constants are provided in the Tables S1–S8 (alongside steady state measurements). All measurements were collected at 4 °C to minimize enzyme activity.
# SPR measurements were made using a Biacore T200 (Cytiva) instrument and data were analyzed using the Biacore Insight Evaluation Software (Cytiva; https://www.cytivalifesciences.com/en/us/shop/protein-analysis/spr-label-free-analysis/spr-software-and-extensions/biacore-insight-evaluation-software-p-23528). Biotinylated-ADO was immobilized on a Biotin CAP chip (Cytiva) with a target density of ∼2500 to 3000 RU and peptide/protein substrates were injected over the chip. […] A buffer comprising 20 mM Hepes pH 7.5, 500 mM NaCl, 10 mM DTT, and 0.1% (v/v) tween-20 was used as the running buffer at a flow rate of 50 μl/min.
# For metal-chelation experiments, a mixture of 10 mM 1, 10-phenanthroline and 100 mM EDTA (pH 8) was injected onto the chip using 10 × 60 s injections at a 100 μl/min flow rate. […] The instrument and chip were primed into buffer excluding reducing agents before conducting metal chelation and iron reconstitution.
row,Molecule,Equilibrium dissociation constant KD
1,RGS5-Ox: Nt-sulfinylated RGS5 peptide acquired through preincubation with ADO ([Cys(O2H)]KGLAALPHSCLER),No binding
2,RGS5-C2A: RGS5 peptide with Nt-cys to alanine (AKGLAALPHSCLER),No binding
3,K3W: RGS5 third position mutant peptide (CWGLAALPHSCLER),the most tolerated
4,K3L: RGS5 third position mutant peptide (CLGLAALPHSCLER),the most tolerated
5,Ac-RGS5: Nt-acetylated RGS5 peptide (Ac-CKGLAALPHSCLER; cysteine pairing not given here),No binding
6,K3R: RGS5 third position mutant peptide (CRGLAALPHSCLER),the most tolerated
7,K3Y: RGS5 third position mutant peptide (CYGLAALPHSCLER),the most tolerated
8,"RGS5^FL-C2A: full-length RGS5 C2A mutant (protein, left off: His tag, N-terminal, cleaved | SUMO, N-terminal, cleaved, full-length RGS5 C2A mutant) MAKGLAALPHSCLERAKEIKIKLGILLQKPDSVGDLVIPYNEKPEKPAKTQKTSLDEALQWRDSLDKLLQNNYGLASFKSFLKSEFSEENLEFWIACEDYKKIKSPAKMAEKAKQIYEEFIQTEAPKEVNIDHFTKDITMKNLVEPSLSSFDMAQKRIHALMEKDSLPRFVRSEFYQELIK",prevented binding

# Same assay, conditions: SPR steady state, 1:1 binding model, biotinylated ADO on Biotin CAP chip, 4 °C, 20 mM Hepes pH 7.5, 500 mM NaCl, 10 mM DTT, 0.1% tween-20; geometric mean (± SD) of minimum three independent measurements; read-out: Equilibrium dissociation constant KD
row,Molecule,Kd [nM]
1,NC(=O)[C@@H]1CCCN1C(=O)[C@H](Cc1ccccc1)NC(=O)[C@@H](N)CS [IL32 tripeptide] (H-Cys-Phe-Pro-NH2; C-terminus assumed),130 ± 3.7
2,SKGLAALPHSCLER-NH2 [RGS5-C2S],42000 ± 5500
3,CC(C)C[C@H](NC(=O)CNC(=O)[C@H](CCCCN)NC(=O)[C@@H](N)CS)C(=O)N[C@@H](C)C(=O)N[C@@H](C)C(=O)N[C@@H](CC(C)C)C(=O)N1CCC[C@H]1C(=O)N[C@@H](Cc1c[nH]cn1)C(=O)N[C@@H](CO)C(=O)N[C@@H](CS)C(=O)N[C@@H](CC(C)C)C(=O)N[C@@H](C)C(=O)N[C@@H](CCCNC(=N)N)C(N)=O [RGS5-E14A] (H-CKGLAALPHSCLAR-NH2),260 ± 42
4,CC(C)C[C@H](NC(=O)CNC(=O)[C@H](CCCCN)NC(=O)[C@@H](N)CS)C(=O)N[C@@H](C)C(=O)N[C@@H](C)C(=O)N[C@@H](CC(C)C)C(=O)N[C@@H](C)C(=O)N[C@@H](Cc1c[nH]cn1)C(=O)N[C@@H](CO)C(=O)N[C@@H](CS)C(=O)N[C@@H](CC(C)C)C(=O)N[C@@H](CCC(=O)O)C(=O)N[C@@H](CCCNC(=N)N)C(N)=O [RGS5-P9A] (H-CKGLAALAHSCLER-NH2),250 ± 23
5,CC(C)C[C@H](NC(=O)CNC(=O)[C@H](CCCCN)NC(=O)[C@@H](N)CS)C(=O)N[C@@H](C)C(=O)N[C@@H](C)C(=O)N[C@@H](CC(C)C)C(=O)N1CCC[C@H]1C(=O)N[C@@H](Cc1c[nH]cn1)C(=O)N[C@@H](CO)C(=O)N[C@@H](CS)C(=O)N[C@@H](C)C(=O)N[C@@H](CCC(=O)O)C(=O)N[C@@H](CCCNC(=N)N)C(N)=O [RGS5-L13A] (H-CKGLAALPHSCAER-NH2),260 ± 32

# Same assay, conditions: SPR, 4 °C; relative to native IL32 peptide
row,Molecule,Fold improvement in binding affinity (stronger) relative to native 14-residue peptide
1,NC(=O)[C@@H]1CCCN1C(=O)[C@H](Cc1ccccc1)NC(=O)[C@@H](N)CS [IL32 tripeptide] (H-Cys-Phe-Pro-NH2; C-terminus assumed),~2 fold
2,H-CFPAVLSDDMKKLK-NH2 (C-terminus assumed) [IL32-K5A],approximately 2 fold
3,H-CFAKVLSDDMKKLK-NH2 (C-terminus assumed) [IL32-P4A],approximately 2 fold

# Same assay, conditions: SPR, 4 °C; relative to native RGS5 or IL32 peptide
row,Molecule,Fold decrease in binding affinity (weaker/higher KD) relative to native 14-residue peptide [fold]
1,H-CAPKVLSDDMKKLK-NH2 (C-terminus assumed) [IL32-F3A],~8

# Molecular target: T2, 2-aminoethanethiol (cysteamine) …
# Assay: SPR
# Settings: not given
row,Molecule,Kd [nM]
1,CKGLAALPHSCLEA [RGS5-R15A],210
2,CKGLAALPHACLER [RGS5-S11A],350
3,CKGLAAAPHSCLER [RGS5-L8A],310
4,CKGLAALAHSCLER [RGS5-P9A],250
5,CKGAAALPHSCLER [RGS5-L5A],220
6,CKGLAALPHSALER [RGS5-C12A],300

# Molecular target: T3, 2-aminoethanethiol (cysteamine) …
# Assay: SPR; Biacore T200; biotinylated ADO immobilized on a Biotin CAP chip (∼2500 to 3000 RU), peptide/protein substrates injected; 4 °C; 20 mM Hepes pH 7.5, 500 mM NaCl, 10 mM DTT, 0.1% tween-20; 50 μl/min; multicycle, equilibrium steady state affinity 1:1 binding model
# Settings: both partners purified
Molecule,Kd [nM],binding result
"CAPKVLSDDMKKLK (peptide, UniProt P24001 2-15, looked up, IL32 residues 2-15 (initiating methionine denoted as 1), F3A; source: synthetic peptide (SPPS, HPLC purified)) [IL32-F3A peptide]",2200 ± 72,–
"CFPAVLSDDMKKLK (peptide, UniProt P24001 2-15, looked up, IL32 residues 2-15 (initiating methionine denoted as 1), K5A; source: synthetic peptide (SPPS, HPLC purified)) [IL32-K5A peptide]",140 ± 2,–
"CFAKVLSDDMKKLK (peptide, UniProt P24001 2-15, looked up, IL32 residues 2-15 (initiating methionine denoted as 1), P4A; source: synthetic peptide (SPPS, HPLC purified)) [IL32-P4A peptide]",150 ± 1.2,–
"CFPKVASDDMKKLK (peptide, UniProt P24001 2-15, looked up, IL32 residues 2-15 (initiating methionine denoted as 1), L7A; source: synthetic peptide (SPPS, HPLC purified)) [IL32-L7A peptide]",570 ± 12,–
"CKALAALPHSCLER (peptide, UniProt O15539 2-15, looked up, RGS5 residues 2-15 (initiating methionine denoted as 1), G4A; source: synthetic peptide (SPPS, HPLC purified)) [RGS5-G4A peptide]",710 ± 15,–
"CKKLAALPHSCLER (peptide, UniProt O15539 2-15, looked up, RGS5 residues 2-15 (initiating methionine denoted as 1), G4K; source: synthetic peptide) [RGS5-G4K peptide]",12000 ± 1500,–
"CKPLAALPHSCLER (peptide, UniProt O15539 2-15, looked up, source: synthetic peptide) [RGS5-G4P peptide]",–,binds
full-length RGS5 (RGS5^FL) (natural protein) CKGLAALPHSCLERAKEIKIKLGILLQKPDSVGDLVIPYNEKPEKPAKTQKTSLDEALQWRDSLDKLLQNNYGLASFKSFLKSEFSEENLEFWIACEDYKKIKSPAKMAEKAKQIYEEFIQTEAPKEVNIDHFTKDITMKNLVEPSLSSFDMAQKRIHALMEKDSLPRFVRSEFYQELIK,3000 ± 58,–
RGS5^FL-C2S (natural protein) SKGLAALPHSCLERAKEIKIKLGILLQKPDSVGDLVIPYNEKPEKPAKTQKTSLDEALQWRDSLDKLLQNNYGLASFKSFLKSEFSEENLEFWIACEDYKKIKSPAKMAEKAKQIYEEFIQTEAPKEVNIDHFTKDITMKNLVEPSLSSFDMAQKRIHALMEKDSLPRFVRSEFYQELIK,63000 ± 610,–
"SFPKVLSDDMKKLK (peptide, UniProt P24001 2-15, looked up, IL32 residues 2-15 (initiating methionine denoted as 1), Nt-cys to serine; source: synthetic peptide (SPPS, HPLC purified)) [IL32-C2S peptide]",~40000,–
"CAGLAALPHSCLER (peptide, UniProt O15539 2-15, looked up, RGS5 residues 2-15 (initiating methionine denoted as 1), K3A; source: synthetic peptide (SPPS, HPLC purified)) [RGS5-K3A peptide]",540 ± 88,–
"CLGLAALPHSCLER (peptide, UniProt O15539 2-15, looked up, RGS5 residues 2-15 (initiating methionine denoted as 1), K3L; source: synthetic peptide) [RGS5-K3L peptide]",–,binds
"CRGLAALPHSCLER (peptide, UniProt O15539 2-15, looked up, RGS5 residues 2-15 (initiating methionine denoted as 1), K3R; source: synthetic peptide) [RGS5-K3R peptide]",–,binds
"CDGLAALPHSCLER (peptide, UniProt O15539 2-15, looked up, RGS5 residues 2-15 (initiating methionine denoted as 1), K3D; source: synthetic peptide) [RGS5-K3D peptide]",39000 ± 1200,–
"CWGLAALPHSCLER (peptide, UniProt O15539 2-15, looked up, RGS5 residues 2-15 (initiating methionine denoted as 1), K3W; source: synthetic peptide) [RGS5-K3W peptide]",–,binds
"CYGLAALPHSCLER (peptide, UniProt O15539 2-15, looked up, RGS5 residues 2-15 (initiating methionine denoted as 1), K3Y; source: synthetic peptide) [RGS5-K3Y peptide]",–,binds
"SKGLAALPHSCLER (peptide, UniProt O15539 2-15, looked up, RGS5 residues 2-15 (initiating methionine denoted as 1), Nt-cys to serine; source: synthetic peptide (SPPS, HPLC purified)) [RGS5-C2S peptide]",~40000,–
